Laboratory results as given in the supplement of paper PMC9112550, “Optimization of the antimicrobial peptide Bac7 by deep mutational scanning” (BMC Biology, 2022).

Each sequence was assayed on Escherichia coli TOP10 (assay: shrunken log2 fold change of peptide-encoding DNA abundance (4.5 h post-induction vs induction); higher = less antimicrobial activity (less host growth inhibition)). Conditions: time post-induction: 4.5 h; library: site-saturation at positions 5, 18, 19, 20.
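Note: peptides expressed intracellularly from a pBAD plasmid library in pooled LB shake-flask culture, induced with 0.3% L-arabinose, DNA abundance read by NGS, three biological replicates, DESeq2 with apeglm shrinkage.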

Sequence	shrunken log2 fold change
RRIRKRPPRLPRPRPRPLAMPRP	0.486
RRIRERPPRLPRPRPRPHNRPRP	-0.0587
RRIRSRPPRLPRPRPRPMNFPRP	-0.0407
RRIRRRPPRLPRPRPRPQDCPRP	-0.151
RRIRGRPPRLPRPRPRPEEGPRP	0.0303
RRIRLRPPRLPRPRPRPWWKPRP	-0.198
RRIRKRPPRLPRPRPRPEWYPRP	-0.204
RRIRLRPPRLPRPRPRPIPKPRP	-0.0415
RRIRLRPPRLPRPRPRPAHHPRP	0.0653
RRIRYRPPRLPRPRPRPGFTPRP	-0.149
RRIRFRPPRLPRPRPRPECDPRP	0.248
RRIRLRPPRLPRPRPRPFRWPRP	0.202
RRIRMRPPRLPRPRPRPRMMPRP	0.476
RRIRGRPPRLPRPRPRPIHNPRP	-0.268
RRIRCRPPRLPRPRPRPQDYPRP	-0.176
RRIRTRPPRLPRPRPRPCSQPRP	-0.018
RRIRPRPPRLPRPRPRPRANPRP	0.286
RRIRMRPPRLPRPRPRPQDEPRP	-0.0393
RRIRHRPPRLPRPRPRPEGLPRP	0.00161
RRIRFRPPRLPRPRPRPFYEPRP	-0.886
RRIRNRPPRLPRPRPRPDWVPRP	0.134
RRIRPRPPRLPRPRPRPDYIPRP	-1.2

Sequence	shrunken log2 fold change
RRIRVRPPRLPRPRPRPMGMPRP	0.0727
RRIRFRPPRLPRPRPRPHWFPRP	-0.0545
RRIRHRPPRLPRPRPRPMWYPRP	-0.0997
RRIRGRPPRLPRPRPRPPTKPRP	0.968
RRIRDRPPRLPRPRPRPMRRPRP	0.363
RRIRARPPRLPRPRPRPSDNPRP	-0.183
RRIRSRPPRLPRPRPRPFYQPRP	-0.308
RRIRDRPPRLPRPRPRPGSSPRP	0.0783
RRIRGRPPRLPRPRPRPFTHPRP	0.0753
RRIRYRPPRLPRPRPRPGVMPRP	-0.55
RRIRSRPPRLPRPRPRPCTAPRP	-0.231
RRIRARPPRLPRPRPRPFSHPRP	-0.124
RRIRTRPPRLPRPRPRPHLHPRP	-0.844
RRIRDRPPRLPRPRPRPQISPRP	0.141
RRIRERPPRLPRPRPRPDAFPRP	-0.038
RRIRYRPPRLPRPRPRPYQSPRP	0.0169
RRIRDRPPRLPRPRPRPINKPRP	-0.287
RRIRYRPPRLPRPRPRPKANPRP	-0.512
RRIRQRPPRLPRPRPRPGKRPRP	0.244
RRIRHRPPRLPRPRPRPQVKPRP	-1.6
RRIRERPPRLPRPRPRPDWMPRP	0.0111
RRIRYRPPRLPRPRPRPLSPPRP	-0.352

Sequence	shrunken log2 fold change
RRIRNRPPRLPRPRPRPAEYPRP	0.0714
RRIRPRPPRLPRPRPRPFMHPRP	0.0361
RRIRDRPPRLPRPRPRPKQWPRP	0.109
RRIRSRPPRLPRPRPRPQSNPRP	-0.613
RRIRTRPPRLPRPRPRPVGNPRP	0.0924
RRIRERPPRLPRPRPRPCSPPRP	-0.286
RRIRTRPPRLPRPRPRPHVIPRP	-0.192
RRIRSRPPRLPRPRPRPMLDPRP	-0.291
RRIRKRPPRLPRPRPRPGMQPRP	-0.00459
RRIRYRPPRLPRPRPRPENVPRP	-0.00208
RRIRDRPPRLPRPRPRPEFLPRP	0.0745
RRIRRRPPRLPRPRPRPIVRPRP	0.117
RRIRWRPPRLPRPRPRPQYFPRP	-0.181
RRIRCRPPRLPRPRPRPMLHPRP	-0.378
RRIRRRPPRLPRPRPRPCIFPRP	-0.0526
RRIRNRPPRLPRPRPRPCYAPRP	-0.424
RRIRIRPPRLPRPRPRPVNKPRP	-0.426
RRIRCRPPRLPRPRPRPMFHPRP	-0.723
RRIRKRPPRLPRPRPRPRTSPRP	0.525
RRIRARPPRLPRPRPRPADFPRP	0.119
RRIRMRPPRLPRPRPRPMAKPRP	0.245
RRIRMRPPRLPRPRPRPGLWPRP	1.1

Sequence	shrunken log2 fold change
RRIRIRPPRLPRPRPRPGKNPRP	-0.597
RRIRVRPPRLPRPRPRPACDPRP	0.284
RRIRFRPPRLPRPRPRPWQLPRP	-0.234
RRIRSRPPRLPRPRPRPVFHPRP	-0.026
RRIRGRPPRLPRPRPRPNGVPRP	-0.186
RRIRPRPPRLPRPRPRPMEWPRP	-0.0225
RRIRRRPPRLPRPRPRPQDIPRP	-1.16
RRIRARPPRLPRPRPRPRTDPRP	0.465
RRIRLRPPRLPRPRPRPTEVPRP	-0.126
RRIRLRPPRLPRPRPRPYFGPRP	-0.218
RRIRSRPPRLPRPRPRPDRKPRP	-0.0693
RRIRTRPPRLPRPRPRPYSPPRP	-0.226
RRIRTRPPRLPRPRPRPIACPRP	-0.0974
RRIRVRPPRLPRPRPRPVPEPRP	0.564
RRIRGRPPRLPRPRPRPRQDPRP	0.452
RRIRARPPRLPRPRPRPMRGPRP	1.56
RRIRTRPPRLPRPRPRPESDPRP	-0.0712
RRIRDRPPRLPRPRPRPFKCPRP	0.0039
RRIRLRPPRLPRPRPRPSSDPRP	0.128
RRIRDRPPRLPRPRPRPFTQPRP	-0.147
RRIRHRPPRLPRPRPRPHPEPRP	0.0129
RRIRQRPPRLPRPRPRPQWGPRP	-0.161

Sequence	shrunken log2 fold change
RRIRARPPRLPRPRPRPCWSPRP	-0.142
RRIRKRPPRLPRPRPRPLFLPRP	0.115
RRIRYRPPRLPRPRPRPHQIPRP	-0.201
RRIRVRPPRLPRPRPRPLNDPRP	0.171
RRIRTRPPRLPRPRPRPIGYPRP	-0.0183
RRIRNRPPRLPRPRPRPMDWPRP	-0.0484
RRIRMRPPRLPRPRPRPAPKPRP	0.675
RRIRPRPPRLPRPRPRPHEQPRP	0.0602
RRIRTRPPRLPRPRPRPTPCPRP	0.124
RRIRERPPRLPRPRPRPFLCPRP	-0.143
RRIRSRPPRLPRPRPRPPMQPRP	0.268
RRIRGRPPRLPRPRPRPTEYPRP	-0.0607
RRIRMRPPRLPRPRPRPHRRPRP	0.0631
RRIRLRPPRLPRPRPRPQCLPRP	-0.455
RRIRWRPPRLPRPRPRPFFNPRP	-0.267
RRIRCRPPRLPRPRPRPNKYPRP	-0.324
RRIRWRPPRLPRPRPRPKPNPRP	0.367
RRIRQRPPRLPRPRPRPPASPRP	0.191
RRIRQRPPRLPRPRPRPVSYPRP	0.0822
RRIRDRPPRLPRPRPRPHMHPRP	-0.0478
RRIRDRPPRLPRPRPRPALTPRP	0.468
